Biological target: Insulin-like growth factor 2 mRNA binding protein 2, full-length, Q9Y6M1
Experiment: mass photometry
Conditions: remark: other sources report otherwise

B1: Insulin-like growth factor 2 mRNA binding protein 2, full-length, Q9Y6M1 1-599 (natural protein)
chain: MMNKLYIGNLSPAVTADDLRQLFGDRKLPLAGQVLLKSGYAFVDYPDQNWAIRAIETLSGKVELHGKIMEVDYSVSKKLRSRKIQIRNIPPHLQWEVLDGLLAQYGTVENVEQVNTDTETAVVNVTYATREEAKIAMEKLSGHQFENYSFKISYIPDEEVSSPSPPQRAQRGDHSSREQGHAPGGTSQARQIDFPLRILVPTQFVGAIIGKEGLTIKNITKQTQSRVDIHRKENSGAAEKPVTIHATPEGTSEACRMILEIMQKEADETKLAEEIPLKILAHNGLVGRLIGKEGRNLKKIEHETGTKITISSLQDLSIYNPERTITVKGTVEACASAEIEIMKKLREAFENDMLAVNQQANLIPGLNLSALGIFSTGLSVLSPPAGPRGAPPAAPYHPFTTHSGYFSSLYPHHQFGPFPHHHSYPEQEIVNLFIPTQAVGAIIGKKGAHIKQLARFAGASIKIAPAEGPDVSERMVIITGPPEAQFKAQGRIFGKLKEENFFNPKEEVKLEAHIRVPSSTAGRVIGKGGKTVNELQNLTSAEVIVPRDQTPDENEEVIVRIIGHFFASQTAQRKIREIVQQVKQQEQKYPQGVASQRSK
percent of the protein in the ˜160kDa species: 42%

Reference: article PMC10889000
